According to patent US6379665B1, “Phospholipase D polypeptide and DNA sequences” (Onyx Pharmaceuticals, Inc., priority 1996, dated 2002):

How the values were obtained:
COS-7 cells = test: standard headgroup assay of extracts of COS-7 cells transfected with mPLD2; type: biochemical; conditions: pCGN expression vector
Procedure: Human PLD1a was also expressed in COS-7 cells. A fragment of the hPLD1a cDNA encoding the entire open reading frame (nucleotides 93 through 3603 of the cDNA) was subcloned in-frame downstream of the cytomegalovirus promoter and the Flu epitope tag in the mammalian expression vector pCGN. COS-7 cells were transfected with 3 g of the resulting plasmid, pFlu-hPLD1, using lipofectamine (Life Technologies, Inc.). Forty-eight hours later, the cells were assayed for PLD activity in the standard headgroup assay referenced below. The time course of choline release varied linearly over time and in proportion to the amount of protein added.
mPLD2 activity was assessed as described in Example 3 for hPLD1. The mPLD2 protein coding sequence was subcloned in pCGN, an expression vector containing a CMV promoter, flu-epitope tag and an SV40 polyadenylation signal sequence. See Example 3. […] The protein coding sequence of mPLD2 was also subcloned in a baculovirus vector following the protocol of Example 3. mPLD2 activity was successfully detected using the procedures described in Example 3.

HL-60 cells = test: RT-PCR quantification of hPLD1a and hPLD1b during dbcAMP-induced HL-60 cell differentiation; type: cell-based, human; conditions: 0.5 mM dbcAMP
Procedure: To analyze changes in the levels of hPLD1 a and hPLD1b during HL-60 cell differentiation induced by dcbAMP, HL-60 cells maintained in RPMI-1640 medium supplemented with 10% fetal bovine serum, 100 units/ml penicillin and 100 µg/ml streptomycin in a humidified atmosphere containing 5% CO2, at 37 C. were grown in RPMI-1640 medium without fetal bovine serum for 24 hours. Differentiation was initiated by the addition of 0.5 mM dbcAMP. Levels of PLD1a and PLD1b were quantified by RT-PCR. Total RNA was isolated from the HL-60 cells at the exponential growth stage by the acid guanidine thiocyanate method following the protocol of Chomczynski, Anal. Biochem. 162: 156-62(1992). Two g of RNA was reverse transcribed by using random hexamer mixed primers. The number of amplification cycles were determined to individual primer sets in order to maintain exponential rate of product amplification. Amplified DNA fragments were subjected to electrophoresis on 1.5% agarose gel and visualized by ethidium bromide staining. The intensity of bands was quantified by a densitometer (Atto Densitograph, Tokyo, Japan). Primer A (Forward): nucleotides 1475 through 1491; primer B (reverse) nucleotides 2133 through 2113 of SEQ ID NO: 1. Amplification conditions used were 94 C. for 30 seconds, 60 C. for 1 minute, and 72 C. for 1 minute; 25-27 cycles.

[1] = substrate specificity and transphosphatidylation assay of hPLD1a; type: biochemical
Procedure: Samples of the reaction products were applied to a 1 ml HPLC column of Source 15S resin (Pharmacia Biotech Inc.) and washed with 10 ml of H2O and eluted with a 30 ml linear gradient of 0-1 M CH3COONH4 in water at a flow rate of 1 ml/min. 1 ml fractions were collected and their radioactivity determined by liquid scintillation counting. Compounds were identified by reference to authentic standards. For analysis of phospholipid products, the vescicles were of standard composition except that approximately 10-20×10^3 dpm of [^32P]PC, [^32P]PE or [^32P]PI (specific radioactivity 10,000 dpm/nmol) was substituted for the [^3H]PC. Incubations were exactly as described except that transphosphatidylation assay contained 2% v/v EtOH. The assays were terminated by addition of 232 l of 1:1 CHCl2, MeOH. After mixing and centrifugation, the lower phases were removed, dried under vacuum, and analyzed by TLC on oxalate-impregnated Whatman 60A silica gel plates in a solvent system of CHCl2, MeOH:acetic acid (13:3:1, v/v). […]
To assess hPLD1a's substrate specificity, the standard PLD assay was carried out using [^32P]PE and [^32P]PI following the method as describe in Brown, Cell 75: 1137-44 (1993). […] To determine whether hPLD1a was capable of transphosphatidylase activity, EtOH was added to the reaction mixture and the products analyzed by thin layer chromatography. […]

[2] = standard headgroup release assay, fractions of hPLD1a baculovirus-infected Sf9 cells; type: biochemical; conditions: Sf9 cells infected 48 hours
Procedure: To determine the activity encoded by recombinant hPLD1a, control and hPLD1a-encoding baculovirus-infected Sf9 cells were assessed using a standard headgroup release assay that measures the amount of tritiated headgroup (e.g. [^3H]choline) liberated by hydrolysis of the labeled substrate [^3H]PC. The assay procedure measures release of the choline headgroup from the radiolabeled PC and is based on a protocol previously described in Brown, Cell 75:1137-44 (1993). Using standard separation techniques, cytosolic and membrane fractions were prepared from uninfected Sf9 cells or Sf9 cells infected for 48 hours with the hPLD1 expressing baculovirus vector. Sf9 cells infected with native baculovirus vector or PLC-expressing baculovirus vector yielded modest PLD activity levels similar to untransfected cells.

B1: mPLD2: murine phospholipase D2, approximately 932 amino acid protein, SEQ ID NO:8 (protein, UniProt P97813 1-933, looked up)
Phospholipase D2: MTVTQKNLFPYGDYLNSSQLHMEPDEVDTLREGEDPADRMHPYLAIYDLQPLKAHPLVFAPGVPVIAQVVGTERYTSGSKVGTCTLYSVRLTHGDFTWTTKKKFRHFQELHRDLQRHKVLMSLLPLARFAVTHSPAREAAAEDIPSLPRGGSEGSARHTASKQKYLENYLNRLLTMSFYRNYHAMTEFLEVSQLSFIPDLGSKGLEGVIRKRSGGHRVPGFTFCGRDQVCYRWSKRWLVVKDSFLLYMRPETGAISFVQLFDPGFEVQVGKRSTETRYGVRIDTSHRSLILKCSSYRQARWWGQEITELAQGSGRDFLQLHQHDSYAPPRPGTLARWFVNGAGYFAAVADAILRAQEEIFITDWWLSPEIYLKRPAHSDDWRLDIMLKRKAEEGVRVSILLFKEVELALGINSGYSKRTLMLLHPNIKVMRHPDLVTLWAHHEKLLVVDQVVAFLGGLDLAFGRWDDVQYRLTDLGDPSEPVHLQTPTLGSDPAATPDLSHNQFFWLGKDYSNLITKDWVQLDRPFEDFIDRETTPRMPWRDVGVVVHGVAARDLARHFIQRWNFTKTTKARYKTPLYPYLLPKSTSTANNLPFMIPGGQCATVQVLRSVDRWSAGTLENSILNAYLHTIRESQHFLYIENQFFISCSDGRTVLNKVGDEIVDRILKAHEQGQCFRVYLLLPLLPGFEGDISTGGGNSIQAILHFTYRTLCRGEHSILHRLKAAMGTAWRDYMSICGLRTHGELGGHPISELIYIHSKMLIADDRTVIIGSANINDRSLLGKRDSELAILIKDTEMEPSLMDGVEYQAGRFALSLRKHCFSVILGANTWPDLDLRDPVCDDFFQLWQETAENNATIYEQIFRCLPSNATRSLRALREYVAVESLATVSPSLAQSELAHIQGHLVHFPLKFLEDESLLPPLGSKEGMIPLEVWT
PLD activity in transfected COS-7 cell extracts (COS-7 cells): far above COS-7 background levels

B2: hPLD1a: human phospholipase D1a, approximately 1074 amino acid protein, SEQ ID NO:2 (protein, listed as Homo sapiens)
chain: MSLKNEPRVNTSALQKIAADMSNIIENLDTRELHFEGEEVDYDVSPSDPKIQEVYIPFSAIYNTQGFKEPNIQTYLSGCPIKAQVLEVERFTSTTRVPSINLYTIELTHGEFKWQVKRKFKHFQEFHRELLKYKAFIRIPIPTRRHTFRRQNVREEPREMPSLPRSSENMIREEQFLGRRKQLEDYLTKILKMPMYRNYHATTEFLDISQLSFIHDLGPKGIEGMIMKRSGGHRIPGLNCCGQGRACYRWSKRWLIVKDSFLLYMKPDSGAIAFVLLVDKEFKIKVGKKETETKYGIRIDNLSRTLILKCNSYRHARWWGGAIEEFIQKHGTNFLKDHRFGSYAAIQENALAKWYVNAKGYFEDVANAMEEANEEIFITDWWLSPEIFLKRPVVEGNRWRLDCILKRKAQQGVRIFIMLYKEVELALGINSEYTKRTLMRLHPNIKVMRHPDHVSSTVYLWAHHEKLVIIDQSVAFVGGIDLAYGRWDDNEHRLTDVGSVKRVTSGPSLGSLPPAAMESMESLRLKDKNEPVQNLPIQKSIDDVDSKLKGIGKPRKFSKFSLYKQLHRHHLHDADSISSIDSTSSYFNHYRSHHNLIHGLKPHFKLFHPSSESEQGLTRPHADTGSIRSLQTGVGELHGETRFWHGKDYCNFVFKDWVQLDKPFADFIDRYSTPRMPWHDIASAVHGKAARDVARHFIQRWNFTKIMKSKYRSLSYPFLLPKSQTTAHELRYQVPGSVHANVQLLRSAADWSAGIKYHEESIHAAYVHVIENSRHYIYIENQFFISCADDKVVFNKIGDAIAQRILKAHRENQKYRVYVVIPLLPGFEGDISTGGGNALQAIMHFNYRTMCRGENSILGQLKAELGNQWINYISFCGLRTHAELEGNLVTELIYVHSKLLIADDNTVIIGSANINDRSMLGKRDSEMAVIVQDTETVPSVMDGKEYQAGRFARGLRLQCFRVVLGYLDDPSEDIQDPVSDKFFKEVWVSTAARNATIYDKVFRCLPNDEVHNLIQLRDFINKPVLAKEDPIRAEEELKKIRGFLVQFPFYFLSEESLLPSVGTKEAIVPMEVWT
increase in level (printed as activity) on day 1 (HL-60 cells; day 1, RT-PCR): approximately 3 fold | increase in level (printed as activity) on day 2 (HL-60 cells; day 2, RT-PCR): approximately 4 fold | increase in level (printed as activity) on day 3 (HL-60 cells; day 3, RT-PCR): less than 4 fold | transphosphatidylase activity ([1]; EtOH added, [^32P]PC, TLC): catalyzes the formation of [^32P]phosphatidylethanol | hydrolysis of PE or PI ([1]; [^32P]PE and [^32P]PI as substrates): unable to hydrolyze PE or PI | cytosolic PLD activity above control ([2]; cytosolic fraction): 32 fold | membrane-associated PLD activity above control ([2]; membrane fraction): 15 fold
